Data reported in paper PMC8464830.

Legend:
Test in all cases: SPR
[1] = molecular target: HIV-1 MA protein from clade B (LAI), full-length (HIV-1 clade B (LAI))
[2] = molecular target: HIV-1 MA protein from clade B (NL4-3), full-length (HIV-1 clade B (NL4-3))
[3] = molecular target: HIV-1 MA protein from clade D (94UG114.1), full-length (HIV-1 clade D (94UG114.1))

human Calmodulin-1 (from UniProt P0DP23 1-149) (natural protein)
Kd [1]: 49 µM
Kd [2]: 27.6 µM
Kd [3]: 33.3 µM
